From US20050025760A1 (KEIO UNIVERSITY, published 2005)

Experiments:
[1] = target: T1, human Dsg3 in human skin or mucosa (human, UniProt P32926 50-999); experiment: indirect immunofluorescence on human skin sections
T1 construct: whole, on cells; also called human tissues
T1 sequence (looked up): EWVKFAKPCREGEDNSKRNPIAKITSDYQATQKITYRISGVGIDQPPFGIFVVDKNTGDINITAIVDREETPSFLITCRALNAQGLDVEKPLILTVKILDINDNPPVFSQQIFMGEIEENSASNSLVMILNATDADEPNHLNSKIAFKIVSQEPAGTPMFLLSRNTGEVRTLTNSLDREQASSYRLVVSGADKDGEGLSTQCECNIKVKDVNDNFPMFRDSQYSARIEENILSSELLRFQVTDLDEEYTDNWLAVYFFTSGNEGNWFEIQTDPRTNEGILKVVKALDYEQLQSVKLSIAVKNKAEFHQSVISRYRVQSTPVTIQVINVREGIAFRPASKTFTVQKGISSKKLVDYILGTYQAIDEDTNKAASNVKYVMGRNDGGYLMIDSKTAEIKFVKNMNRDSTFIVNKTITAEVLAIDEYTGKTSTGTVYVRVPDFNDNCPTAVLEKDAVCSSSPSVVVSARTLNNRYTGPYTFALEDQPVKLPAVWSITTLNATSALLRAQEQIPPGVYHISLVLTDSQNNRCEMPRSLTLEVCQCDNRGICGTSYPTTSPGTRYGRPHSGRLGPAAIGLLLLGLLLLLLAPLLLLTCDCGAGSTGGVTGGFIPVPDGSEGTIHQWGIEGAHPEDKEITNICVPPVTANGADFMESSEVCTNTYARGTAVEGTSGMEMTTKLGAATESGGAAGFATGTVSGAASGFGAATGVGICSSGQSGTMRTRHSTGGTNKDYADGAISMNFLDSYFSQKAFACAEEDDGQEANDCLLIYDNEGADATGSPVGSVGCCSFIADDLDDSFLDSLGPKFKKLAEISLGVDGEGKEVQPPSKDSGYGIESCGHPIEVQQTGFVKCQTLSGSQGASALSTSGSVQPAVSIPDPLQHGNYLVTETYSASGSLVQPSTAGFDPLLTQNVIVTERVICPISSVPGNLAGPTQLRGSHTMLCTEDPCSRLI
Procedure: A-5 (Indirect Immunofluorescence) C57B1/6J mouse hard palate, liver and human skin were embedded with OCT compound (SAKURA, USA), then froze and sectioned into 5 μm thickness, and constructed a substrate. After each of hybridoma culture supernatants were reacted for 1 hour at room temperature, they were washed with PBS (3 times), and reacted with ×100 diluted FITC labeled goat anti-mouse IgG (DAKO A/S, Glostrup, Denmark) for 1 hour at room temperature, they were washed with PBS (3 times), and microscopic examination was conducted using a fluorescence microscope.

[2] = target: T2, recombinant protein human Dsg3-His (human, UniProt P32926 50-615); experiment: ELISA on recombinant human Dsg3-His
T2 construct: extracellular domain; Baculovirus product; also called recombinant human Dsg3; not shown: C-terminal His tag
T2 sequence (looked up): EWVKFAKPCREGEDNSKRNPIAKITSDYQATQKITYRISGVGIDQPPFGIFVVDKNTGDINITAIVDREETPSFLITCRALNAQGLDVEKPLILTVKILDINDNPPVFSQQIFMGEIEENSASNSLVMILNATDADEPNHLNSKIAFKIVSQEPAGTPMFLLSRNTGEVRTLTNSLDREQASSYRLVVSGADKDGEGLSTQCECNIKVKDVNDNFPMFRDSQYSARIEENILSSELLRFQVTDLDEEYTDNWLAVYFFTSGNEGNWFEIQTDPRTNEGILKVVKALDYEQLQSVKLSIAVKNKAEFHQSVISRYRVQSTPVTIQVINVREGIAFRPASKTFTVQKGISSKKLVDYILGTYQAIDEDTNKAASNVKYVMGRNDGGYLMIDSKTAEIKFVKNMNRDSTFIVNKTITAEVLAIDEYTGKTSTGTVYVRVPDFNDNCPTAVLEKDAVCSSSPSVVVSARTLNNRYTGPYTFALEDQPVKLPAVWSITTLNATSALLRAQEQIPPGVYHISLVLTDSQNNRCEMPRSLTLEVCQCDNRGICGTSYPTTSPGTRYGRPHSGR
From the text: The baculovirus vectors, pEVmod-Dsg3-His and pEVmod-Dsg1-His, pEVmod-mouse Dsg3-His and pEVmod-mouse Dsg1 -His, that were constructed according to the method as described previously (J. Immunol. 159, 2010-2017, 1997) were used. These recombinant baculoviruses were infected to insect cells, High Five (Invitrogen Corporation), then the recombinant protein human Dsg3-His and Dsg1-His, recombinant protein mouse Dsg3-His and Dsg1-His were collected from the culture media, respectively. In addition, purification of these recombinant proteins was conducted using Ni-NTA column. These purified recombinant proteins were coated on ELISA (Enzyme Linked Immunosorbent Assay) plates, respectively, 50 μl each of the culture supernatant of the anti-Dsg3 monoclonal antibody-producing hybridoma was added to each well, and ELISA was practiced according to the method as previously described (J Clin Invest 105, 625-631, 2000). PV mouse model 1 serum with moderate degree of antibody titer was selected as a positive control, and 1 serum of normal mouse serum was selected as a negative control. Absorbance was determined at wavelength 450 nm (Bio-rad, Hercules, Calif. USA), and the index was shown by the following formula. Index={OD(specimen)−OD(negative control)}/{OD(positive control)−OD(negative control)}×100 A-2 (Living Cell Staining using Culture Mouse Keratinocyte PAM 212)

binding result [1]: binds | binding result [2]: binds
B1: anti-Dsg3 monoclonal antibody AK23 (antibody, mouse IgG1, V domains shown)
VH: QVQLQQSGTELVKPGASVKLSCKSSGYTFTSYWINWVKQRPGQGLEWIGNINPSNGGINYNEKFKSKATLTVDKSSSTAYMQLKSLTSEDSAVYYCARGGYDGYPWGQGTTVTVS
VL: DIQMTQSPKFLLVSAGDRVTITCKASQSVSYDVAWYQQKPGQSPKLLISYASNRYTGVPDRFTGSGYGSDFTFTISTVQTEDLAVYFCQQDYSSPWTFGGGTKLELKR
notes: Mouse IgG1 kappa hybridoma antibody
